According to patent US20050148763A1, “Peg-binding pth or peg-binding pth derivative” (Chugai Seiyaku Kabushiki Kaisha, priority 2002, published 2005):

Legend:
rat PTH1 receptors = target: T1, rat PTH1 receptors (Rattus norvegicus, UniProt P25961); assay: in vitro ability to produce cAMP, EW29 cells; assay type: cell-based; conditions: Table 2(3), n=2-3; for EC50: cAMP production
T1 construct: expressed in transfected cells; host or cells: EW29 cells
T1 sequence (P25961 27-591): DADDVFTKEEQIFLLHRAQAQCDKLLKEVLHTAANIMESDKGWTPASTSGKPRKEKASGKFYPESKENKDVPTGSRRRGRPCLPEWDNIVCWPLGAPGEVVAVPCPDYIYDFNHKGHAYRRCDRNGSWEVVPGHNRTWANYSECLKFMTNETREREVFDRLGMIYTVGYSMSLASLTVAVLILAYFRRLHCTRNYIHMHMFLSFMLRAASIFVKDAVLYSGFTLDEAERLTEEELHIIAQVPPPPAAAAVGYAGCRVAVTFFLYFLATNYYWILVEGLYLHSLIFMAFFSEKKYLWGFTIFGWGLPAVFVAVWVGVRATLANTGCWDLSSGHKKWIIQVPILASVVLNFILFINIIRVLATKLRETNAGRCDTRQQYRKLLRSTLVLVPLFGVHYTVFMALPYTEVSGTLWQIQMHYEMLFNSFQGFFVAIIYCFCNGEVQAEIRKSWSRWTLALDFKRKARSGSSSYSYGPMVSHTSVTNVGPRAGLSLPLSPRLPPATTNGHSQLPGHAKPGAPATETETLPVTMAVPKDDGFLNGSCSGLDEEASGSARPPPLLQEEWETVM
Method: (§1) Each PEG-PTH sample was assayed for its ability to produce cAMP (indicative of the increasing effect of PTH on bone mass) as follows. […] These cells were seeded in 96-well plates at 1×10^5 cells/well and incubated overnight. […] After removing the reaction solution, the plates were placed on powdered dry ice to freeze the cells and then removed from the dry ice. The cells were thawed with 50 μL of 50 mM HCl and frozen again on dry ice. The level of intracellular cAMP was determined with a commercially available EIA kit (Biotrak cAMP EIA system, Amersham).

human PTH1 receptors [1] = target: T2, human PTH1 receptors (Homo sapiens, UniProt Q03431); assay: in vitro ability to produce cAMP, HKRK-B64 cells; assay type: cell-based; conditions: Table 2(2), n=2-3; for EC50: cAMP production
T2 construct: expressed in transfected cells; host or cells: HKRK-B7 and HKRK-B64 cells (derived from pig kidney LLC-PK1 cells)
T2 sequence (Q03431 27-593): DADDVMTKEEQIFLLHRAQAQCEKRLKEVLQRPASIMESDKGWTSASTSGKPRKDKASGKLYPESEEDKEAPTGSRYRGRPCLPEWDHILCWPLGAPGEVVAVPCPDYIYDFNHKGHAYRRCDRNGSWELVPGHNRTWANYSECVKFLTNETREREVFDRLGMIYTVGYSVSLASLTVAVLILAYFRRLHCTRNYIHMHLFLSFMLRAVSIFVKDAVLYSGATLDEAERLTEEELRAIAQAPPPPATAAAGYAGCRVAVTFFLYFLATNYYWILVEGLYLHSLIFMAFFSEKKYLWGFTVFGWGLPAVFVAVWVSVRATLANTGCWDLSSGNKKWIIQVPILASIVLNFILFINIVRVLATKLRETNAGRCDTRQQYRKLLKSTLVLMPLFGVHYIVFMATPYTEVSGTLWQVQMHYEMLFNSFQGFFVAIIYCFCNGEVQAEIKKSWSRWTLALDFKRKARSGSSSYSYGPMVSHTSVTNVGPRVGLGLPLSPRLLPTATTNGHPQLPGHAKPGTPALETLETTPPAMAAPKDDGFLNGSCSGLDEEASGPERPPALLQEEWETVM
Method: Each PEG-PTH sample was assayed for its ability to produce cAMP (indicative of the increasing effect of PTH on bone mass) as follows. HKRK-B7 and HKRK-B64 cells, genetically modified from pig kidney-derived LLC-PK1 cells to overexpress human PTH1 receptors at levels of about 1×10^6 and 9×10^4 receptors per cell, respectively, as well as EW29 cells expressing about 1.9×10^5 rat PTH1 receptors per cell (Takasu et al., J. Bone. Miner. Res. 14: 11-20, 1999) were grown in DMEM supplemented with 10% FBS, 1% penicillin and 1% streptomycin. These cells were seeded in 96-well plates at 1×10^5 cells/well and incubated overnight. On the following day, the cells were washed once with 200 μL binding buffer (50 mM Tris-HCl/100 mM NaCl/5 mM KCl/2 mM CaCl2/5% inactivated horse serum/0.5% inactivated bovine serum, pH 7.7), followed by addition of 100 μL cAMP assay buffer (DMEM/2 mM 3-isobutyl-1-methylxanthine/1 mg/mL bovine serum albumin/35 mM HEPES-NaOH, pH 7.4) on ice. […] After removing the reaction solution, the plates were placed on powdered dry ice to freeze the cells and then removed from the dry ice. The cells were thawed with 50 μL of 50 mM HCl and frozen again on dry ice. The level of intracellular cAMP was determined with a commercially available EIA kit (Biotrak cAMP EIA system, Amersham).

[2] = Hypercalcemic effect of PEG-[Cys^35]-PTH(1-35) in normal female DDY mice; assay type: in vivo; conditions: for Blood iCa level Hour 1: 1 hour after administration; for Blood iCa level Hour 3: 3 hours; for Blood iCa level Hour 6: 6 hours; for Blood iCa level Hour 9: 9 hours; for Blood iCa level Hour 24: 24 hours; for Blood iCa level Hour 0: before administration; for hypercalcemic effect (in words): 10-150 nmol/kg
Method: 2 k, 5 k and 20 k PEG-[Cys^35]-PTH(1-35) were also adjusted similarly to 30, 10 and 2 nmol/mL (calculated as PTH) and allowed to stand on ice immediately before administration.
Using female DDY mice at 6 weeks of age (Japan SLC, Inc.), the corrected level of ionized calcium at pH 7.4 was determined for each sample in the same manner as shown in (1) above. The mice received subcutaneous administration of each drug at a dose of 5 mL/kg. The buffer was administered to a group of 5 mice. […] 150 nmol/kg 2 k, 5 k and 20 k PEG-[Cys^35]-PTH(1-35) were administered to groups of 4 mice each. 50 and 10 nmol/kg 2 k, 5 k and 20 k PEG-[Cys^35]-PTH(1-35) were administered to groups of 5 mice each. At 1, 3, 6, 9 and 24 hours after administration, blood was collected by orbital puncture to monitor the time course of corrected blood ionized calcium levels.

human PTH1 receptors [3] = target: T2, human PTH1 receptors; assay: in vitro ability to produce cAMP, HKRK-B7 cells; assay type: cell-based; conditions: Table 2(1), n=2-3; for EC50: cAMP production
Method: as §1

[4] = Pharmacokinetics and bioavailability in rats by subcutaneous route; assay type: in vivo; conditions: subcutaneous, 80 μg/mL at 1 mL/kg
Method: Each sample was adjusted to 80 μg/mL by dilution with 25 mmol/L citrate-phosphate buffer (pH 5.0) containing 100 mmol/L NaCl and 0.05 vol % Tween 20 to give a solution for administration. Male SD rats at 6 weeks of age (CLEA Japan, Inc.) were provided for this experiment. Intravenous injection was performed on rats having polyethylene tubes (SP-31, Natsume Seisakusho Co., Ltd.) inserted into the femoral artery and vein. The solutions thus prepared were each administered at a dose of 1 mL/kg through a polyethylene tube inserted into the femoral vein, and blood was collected through a polyethylene tube inserted into the femoral artery before administration and at 5, 15, 30 and 45 minutes as well as 1, 2, 4, 6, 8 and 24 hours after administration. Subcutaneous administration was performed on rats having polyethylene tubes inserted into the femoral artery. The solutions prepared above were each subcutaneously administered at a dose of 1 mL/kg to the dorsal neck region of the rats, and blood was collected in the same manner as used for intravenous injection. These blood samples were centrifuged to collect plasma and stored at −40° C. until assayed for PTH(1-34) or PEG-PTH(1-34) levels.
The level of PTH(1-34) or PEG-PTH(1-34) was determined by RIA analysis using a Rat PTH IRMA Kit (Immutopics). A Cobra Quantum Model 5005 gamma counter (Packard) was used to measure radioactivity for each sample. The plasma level of PTH(1-34) or PEG-PTH(1-34) was calculated from a calibration curve prepared using PTH(1-34) or PEG-PTH(1-34). The Winnonlin program Ver. 2.1 (Scientific Consulting Inc.) was used to analyze the time course of changes in the calculated plasma PTH(1-34) or PEG-PTH(1-34) levels (FIG. 3: by intravenous route; FIG. 4: by subcutaneous route) to calculate the following as pharmacokinetic parameters: time required to reach the maximum plasma level (Tmax); maximum plasma level (Cmax); area under the curve of plasma levels (AUC); plasma half-life (t1/2); total body clearance (Cltotal); mean residence time in the body (MRT); and bioavailability (BA). […]

Row | Substance | Maximum cAMP response (rat PTH1 receptors) [pmol/well] | EC50 (rat PTH1 receptors) [nM] | Maximum cAMP response (human PTH1 receptors [1]) [pmol/well] | EC50 (human PTH1 receptors [1]) [nM] | Blood iCa level Hour 1 ([2]; 10 nmol/kg sc) [mM] | Blood iCa level Hour 3 ([2]; 10 nmol/kg sc) [mM] | Blood iCa level Hour 6 ([2]; 10 nmol/kg sc) [mM] | Blood iCa level Hour 9 ([2]; 10 nmol/kg sc) [mM] | Blood iCa level Hour 24 ([2]; 10 nmol/kg sc) [mM] | Blood iCa level Hour 0 ([2]; 10 nmol/kg sc) [mM] | Blood iCa level Hour 1 ([2]; 50 nmol/kg sc) [mM] | Blood iCa level Hour 3 ([2]; 50 nmol/kg sc) [mM] | Blood iCa level Hour 6 ([2]; 50 nmol/kg sc) [mM] | Blood iCa level Hour 9 ([2]; 50 nmol/kg sc) [mM] | Blood iCa level Hour 24 ([2]; 50 nmol/kg sc) [mM] | Blood iCa level Hour 0 ([2]; 50 nmol/kg sc) [mM] | Blood iCa level Hour 1 ([2]; 150 nmol/kg sc) [mM] | Blood iCa level Hour 3 ([2]; 150 nmol/kg sc) [mM] | Blood iCa level Hour 6 ([2]; 150 nmol/kg sc) [mM] | Blood iCa level Hour 9 ([2]; 150 nmol/kg sc) [mM] | further results
1 | 5 k PEG-[Cys^35]-hPTH(1-35): [Cys^35]-hPTH(1-35) conjugated with 5 kDa PEG (SVSEIQLMHNLGKHLNSMERVEWLRKKLQDVHNFC; Parathyroid hormone 5 kDa PEG at Cys35; UniProt P01270 32-66, looked up, variant V35C) | 52.5 ± 14.1 | 3.5 | 66.6 ± 17.4 | 1 | 1.44 ± 0.02 | 1.50 ± 0.02 | 1.43 ± 0.02 | 1.28 ± 0.04 | 1.36 ± 0.03 | 1.30 ± 0.04 | 1.43 ± 0.03 | 1.49 ± 0.04 | 1.48 ± 0.03 | 1.35 ± 0.06 | 1.36 ± 0.04 | 1.31 ± 0.03 | 1.43 ± 0.04 | 1.49 ± 0.03 | 1.52 ± 0.05 | 1.35 ± 0.02 | Blood iCa level Hour 24 ([2]; 150 nmol/kg sc): 1.40 ± 0.05 mM; Blood iCa level Hour 0 ([2]; 150 nmol/kg sc): 1.30 ± 0.03 mM; increased blood ionized calcium level maintained until ([2]; female DDY mice, sc): 6 h; time of maximum increase in blood ionized calcium levels after administration ([2]; female DDY mice, sc): 3 h; Maximum cAMP response (human PTH1 receptors [3]): 122.7 ± 11.5 pmol/well; EC50 (human PTH1 receptors [3]): 0.9 nM
2 | 20 k PEG-[Cys^35]-hPTH(1-35): [Cys^35]-hPTH(1-35) conjugated with 20 kDa PEG (SVSEIQLMHNLGKHLNSMERVEWLRKKLQDVHNFC; Parathyroid hormone 20 kDa PEG at Cys35; UniProt P01270 32-66, looked up, variant V35C) | 59.4 ± 12.9 | 9.1 | 79.6 ± 14.6 | 8 | 1.39 ± 0.03 | 1.51 ± 0.01 | 1.48 ± 0.05 | 1.43 ± 0.05 | 1.78 ± 0.09 | 1.27 ± 0.04 | 1.44 ± 0.03 | 1.53 ± 0.02 | 1.51 ± 0.03 | 1.44 ± 0.06 | 2.44 ± 0.12 | 1.30 ± 0.04 | 1.42 ± 0.02 | 1.54 ± 0.02 | 1.55 ± 0.03 | 1.43 ± 0.06 | Blood iCa level Hour 24 ([2]; 150 nmol/kg sc): 2.71 ± 0.19 mM; Blood iCa level Hour 0 ([2]; 150 nmol/kg sc): 1.30 ± 0.02 mM; hypercalcemic effect (in words) ([2]; female DDY mice, sc, listed as 20 k PEG-(Cys^35]-PTH(1-35)): very high blood ionized calcium levels at all tested doses; hypercalcemic effect (in words) ([2]; female DDY mice, sc, listed as 20 k PEG-[Cys^35]-PTH (1-35)): maintained a significantly higher level than that of the buffer group even at 9 hours after administration; Maximum cAMP response (human PTH1 receptors [3]): 131.1 ± 7.5 pmol/well; EC50 (human PTH1 receptors [3]): 2.7 nM
3 | 20k PEG-hPTH(1-34): hPTH(1-34) reacted with mPEG 20 k-SPA, fraction having one 20 kDa PEG molecule per PTH molecule | – | – | – | – | – | – | – | – | – | – | – | – | – | – | – | – | – | – | – | – | AUC [4]: 2693.945 ng·h/mL; MRT [4]: 18.93 h; Tmax [4]: 7.000 h; t ½ [4]: 11.346 h
